Results from article PMC10465243, “Identification of sucrose synthase from Micractinium conductrix to favor biocatalytic glycosylation” (Frontiers in Microbiology, 2023).

Legend:
[1] = tested on: O=c1ccn([C@@H]2O[C@H](COP(=O)(O)OP(=O)(O)O)[C@@H](O)[C@H]2O)c(=O)[nH]1; experiment: purified protein; assay type: biochemical, Micractinium conductrix; conditions: 200 mM sucrose, 50 mM HEPES-NaOH pH 7.0, 37°C, sucrose cleavage direction, apparent
[2] = tested on: OC[C@H]1O[C@@](CO)(O[C@H]2O[C@H](CO)[C@@H](O)[C@H](O)[C@H]2O)[C@@H](O)[C@@H]1O; experiment: purified protein; assay type: biochemical, Micractinium conductrix; conditions: 2 mM UDP, 50 mM HEPES-NaOH pH 7.0, 37°C, sucrose cleavage direction, apparent

McSuSy (Micractinium conductrix; S31D), sequence (chain, as listed by the source S31D): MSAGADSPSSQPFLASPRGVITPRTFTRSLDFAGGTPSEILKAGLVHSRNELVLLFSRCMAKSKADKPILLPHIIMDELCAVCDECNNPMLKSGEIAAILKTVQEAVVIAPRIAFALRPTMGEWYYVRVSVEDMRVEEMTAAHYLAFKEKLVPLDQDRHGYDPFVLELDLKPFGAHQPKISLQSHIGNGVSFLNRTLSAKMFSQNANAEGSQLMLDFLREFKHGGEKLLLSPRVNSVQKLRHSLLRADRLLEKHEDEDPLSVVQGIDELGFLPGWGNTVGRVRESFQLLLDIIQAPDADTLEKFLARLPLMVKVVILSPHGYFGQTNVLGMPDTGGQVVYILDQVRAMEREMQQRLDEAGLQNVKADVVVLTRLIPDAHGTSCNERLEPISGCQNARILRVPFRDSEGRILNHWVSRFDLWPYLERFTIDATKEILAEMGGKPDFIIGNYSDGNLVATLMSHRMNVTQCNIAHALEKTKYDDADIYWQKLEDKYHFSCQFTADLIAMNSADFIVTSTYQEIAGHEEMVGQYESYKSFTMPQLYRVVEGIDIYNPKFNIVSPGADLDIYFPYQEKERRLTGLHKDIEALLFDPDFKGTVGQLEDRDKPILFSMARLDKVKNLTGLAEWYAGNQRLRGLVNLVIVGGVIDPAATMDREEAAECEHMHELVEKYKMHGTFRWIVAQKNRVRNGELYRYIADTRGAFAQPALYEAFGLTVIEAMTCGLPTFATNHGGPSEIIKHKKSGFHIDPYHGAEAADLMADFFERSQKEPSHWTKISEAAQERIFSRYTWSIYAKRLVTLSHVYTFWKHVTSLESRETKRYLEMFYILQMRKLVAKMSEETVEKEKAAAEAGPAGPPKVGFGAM
McSuSy (Micractinium conductrix), sequence (chain, as listed by the source): as the sequence (chain, as listed by the source S31D) above, with D31S counted along it

Row | Substance | Km [1] [mM] | Vmax [1] [µmol/min/mg] | kcat [1] [s⁻¹] | kcat/Km [1] [M⁻¹ s⁻¹] | Km [2] [mM]
1 | McSuSy (Micractinium conductrix; S31D) | 0.092 | 11.4 | 19 | 206000 | 88
2 | McSuSy (Micractinium conductrix) | 0.14 | 10.4 | 17.3 | 124000 | 90
